Measured values taken from paper PMC11258689, “A Snake Venom Peptide and Its Derivatives Prevent Aβ42 Aggregation and Eliminate Toxic Aβ42 Aggregates In Vitro” (ACS Chemical Neuroscience, 2024).
Non-standard residues stand in square brackets, D forms with d. No end group written: not given here.

Molecular target: amyloid-β (1–42) (UniProt P05067)

B1: CDP-1D, D-enantiomeric form of CDP-1 (peptide)
peptide: Ac-[dK][dK][dC][dC][dK][dW][dR][dW][dR][dC][dD][dM][dK]
modifications: not fully specified (C-terminus); cysteine pairing not given here; also: methylated at the C-terminus
- ThT fluorescence of Aβ42 aggregation (10 μM Aβ42, 28 μM peptide, 24 h); inhibition of the self-aggregation of Aβ42: 100%
